# B1: FOLR1-Ab20 (antibody, V domains shown)
# VH: EVLLQQSGPELVKPGASVKIPCKASGYTFTDYNMDWVKQSHGKSLEWIGDINPNNGGTIYNQKFKGKATLTVDKSSSTAYMELRSLTSEDTAVYYCARKPYYGPRYFDVWGAGTTVTVSS
# VL: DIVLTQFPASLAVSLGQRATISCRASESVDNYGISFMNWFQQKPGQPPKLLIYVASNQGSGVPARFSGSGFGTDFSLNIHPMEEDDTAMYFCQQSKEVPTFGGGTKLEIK
# notes: Monoclonal antibody from a hybridoma clone; V regions amplified with mouse Ig primers
# B2: FOLR1-Ab14 (antibody, V domains shown)
# VH: EVLLQQSGPELVKPGASVKIPCKASGYTFTDYNMDWVKQSHGKSLEWIGDINPNNGGTIYNQKFKGKATLTVDKSSSTAYMELRSLTSEDTAVYYCARKPYYGPRYFDVWGAGTTVTVSS
# VL: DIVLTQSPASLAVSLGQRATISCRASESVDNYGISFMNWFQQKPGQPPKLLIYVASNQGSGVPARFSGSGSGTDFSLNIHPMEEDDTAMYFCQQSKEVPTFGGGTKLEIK
# notes: as for B1
# B3: FOLR1-Ab23 (antibody, V domains shown)
# VH: EVLLQQSGPELVKPGASVKIPCKASGYTFTDYNMDWVKQSHGKSLEWIGDINPNNGGTIYNQKFKGKATLTVDKSSSTAYMELRSLTSEDTAVYYCARKPYYGPRYFDVWGAGTTVTVSS
# VL: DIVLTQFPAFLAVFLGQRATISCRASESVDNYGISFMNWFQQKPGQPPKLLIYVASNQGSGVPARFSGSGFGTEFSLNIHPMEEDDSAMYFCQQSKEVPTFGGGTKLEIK
# notes: as for B1
# B4: FOLR1-Ab4 (antibody, V domains shown)
# VH: QIQLVQSGPELKKPGETVKISCKASIYTFTDYSIQWVKQAPGKGLKWMGWINTETGEPTYADDFKGRFAFSLESSASTAFLQINNLKNEDTATYFCARMGYYGPKIMDYWGQGTSVTVSS
# VL: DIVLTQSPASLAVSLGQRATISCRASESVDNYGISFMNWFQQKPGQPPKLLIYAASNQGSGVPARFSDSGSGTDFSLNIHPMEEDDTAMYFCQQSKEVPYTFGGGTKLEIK
# notes: as for B1
# B5: FOLR1-Ab1 (antibody, V domains shown)
# VH: QVQLQQPGAELVRPGASVKLSCKASGYTFTSYWMNWVKQRPEQGLEWIGRINPYDSETHSNQKFKDKAILTVDKSSTTAYMQLSSLTSEDSAVYYCARSGGYAWFAYWGQGTLVTVSA
# VL: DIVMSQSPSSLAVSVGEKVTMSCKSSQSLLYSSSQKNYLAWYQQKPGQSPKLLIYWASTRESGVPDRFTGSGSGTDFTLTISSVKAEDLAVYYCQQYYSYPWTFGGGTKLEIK
# notes: as for B1
# Biological target: recombinant FOLR1 protein (rProtein) (Homo sapiens (Human), UniProt P15328 25-234, limits assumed)
# Sequence (P15328 25-234 limits assumed): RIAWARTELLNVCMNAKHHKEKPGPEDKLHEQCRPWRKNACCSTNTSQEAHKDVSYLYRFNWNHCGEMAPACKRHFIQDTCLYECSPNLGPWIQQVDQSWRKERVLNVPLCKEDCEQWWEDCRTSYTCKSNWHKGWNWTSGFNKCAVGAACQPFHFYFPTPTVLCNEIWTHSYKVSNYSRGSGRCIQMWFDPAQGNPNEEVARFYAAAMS
# Experiment: ELISA titration with varying concentrations of recombinant FOLR1 protein
# Description: Antibodies were tested in an antigen binding assay using ELISA titration experiments.
row,Binder,rProtein ELISA Affinity
1,B1,12.5 nM
2,B2,3.12 nM
3,B3,6.25 nM
4,B4,0.78 nM
5,B5,0.39 nM
